# Test results taken from paper PMC11406491, “A Plasmonic Nanoledge Array Sensor for Selective Detection of Cardiovascular Disease Biomarkers in Human Whole Blood”.
# T1: myoglobin (UniProt P02144 2-154)
# T1 sequence: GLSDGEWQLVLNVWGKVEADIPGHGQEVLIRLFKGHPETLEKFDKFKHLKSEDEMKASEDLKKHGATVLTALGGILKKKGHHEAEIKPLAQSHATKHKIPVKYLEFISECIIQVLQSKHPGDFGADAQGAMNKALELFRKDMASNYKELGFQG
# What was measured:
# [1] = molecular target: cardiac troponin I (cTnI) (human, UniProt P19429 2-210); experiment: SPR (transmitted, EOT peak shift); PBS; LOD 0.079 ng/mL; Aptamer immobilized on gold nanoledge chip (cystamine/glutaraldehyde, PEG and glycine blocked); PBS, human serum or whole blood; 20 min incubation; room temperature (stated for stability test); pH and salt not given; details: protein: commercial
# myoglobin = molecular target: T1, myoglobin; experiment: SPR (transmitted, EOT peak shift); up to 125 ng/mL; minimal shift, described as poor binding; human serum (Methods) or PBS (Fig S8); Aptamer immobilized on gold nanoledge chip (cystamine/glutaraldehyde, PEG and glycine blocked); PBS, human serum or whole blood; 20 min incubation; room temperature (stated for stability test); pH and salt not given; details: protein: commercial
# Chain of cardiac troponin I (cTnI) (P19429 2-210): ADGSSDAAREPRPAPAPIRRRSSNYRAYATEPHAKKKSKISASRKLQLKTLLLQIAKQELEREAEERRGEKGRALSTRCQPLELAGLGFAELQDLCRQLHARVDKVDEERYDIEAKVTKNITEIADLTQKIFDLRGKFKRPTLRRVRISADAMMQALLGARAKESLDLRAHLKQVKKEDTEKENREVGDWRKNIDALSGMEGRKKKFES
binder,measurement,setting,value
"CGTGCAGTACGCCAACCTTTCTCATGCGCTGCCCCTCTTA (ssDNA, 5' amino modifier C6 (5AmMC6)) [cTnI-specific aptamer]",binding result,[1],binds
same,binding result,myoglobin,no binding
